# According to the DeepSol protein solubility set:
# Assay: soluble on expression in E. coli; label from the status in PepcDB or PDB records
row,Sequence,soluble on expression in E. coli
1,MGSSHHHHHHSSGLVPRGSHGLVPRGSHMKKLKLHGFNNLTKSLSFCIYDICYAKTAEERDGYIAYIDELYNANRLTEILSETCSIIGANILNIARQDYEPQGASVTILVSEEPVDPKLIDKTEHPGPLPETVVAHLDKSHICVHTYPESHPEGGLCTFRADIEVSTCGVISPLKALNYLIHQLESDIVTIDYRVRGFTRDINGMKHFIDHEINSIQNFMSDDMKALYDMVDVNVYQENIFHTKMLLKEFDLKHYMFHTKPEDLTDSERQEITAALWKEMREIYYGRNMPAV,soluble
2,MTGQRDGASLHDALTDKQAAVLRAAFHAGYFEWPRESTAEDLAADMGVTAPTLHNHLRRAQQKLLEHHHHHH,not soluble
3,MENKTNNTKTEIKKKDMSKTFETIKGELFFEDKVIQKIIGIALDEIDGLLTIDGGFFSNIAGKLVNTDNTTSGVDVEVGKKQVAVDLSIVAEYGKDVTTIYDKMKQVISNEVKKMTGLDVIEINVNVVDVKTKEQHENDSVTLQDHLSDAASATGEFASKQFEKSKEALGVASEKVSDGVQNVKEETEPRVKLEHHHHHH,soluble
4,MEMLSGAEMVVRSLIDQGVKQVFGYPGGAVLDIYDALHTVGGIDHVLVRHEQAAVHMADGLARATGEVGVVLVTSGPGATNAITGIATAYMDSIPLVVLSGQVATSLIGYDAFQECDMVGISRPVVKHSFLVKQTEDIPQVLKKAFWLAASGRPGPVVVDLPKDILNPANKLPYVWPESVSMRSYNPTTTGHKGQIKRALQTLVAAKKPVVYVGGGAITAGCHQQLKETVEALNLPVVCSLMGLGAFPATHRQALGMLGMHGTYEANMTMHNADVIFAVGVRFDDRTTNNLAKYCPNATVLHIDIDPTSISKTVTADIPIVGDARQVLEQMLELLSQESAHQPLDEIRDWWQQIEQWRARQCLKYDTHSEKIKPQAVIETLWRLTKGDAYVTSDVGQHQMFAALYYPFDKPRRWINSGGLGTMGFGLPAALGVKMALPEETVVCVTGDGSIQMNIQELSTALQYELPVLVVNLNNRYLGMVKQWQDMIYSGRHSQSYMQSLPDFVRLAEAYGHVGIQISHPHELESKLSEALEQVRNNRLVFVDVTVDGSEHVYPMQIRGGGMDEMWLSKTERT,soluble
5,MMEDDGQPRTLYVGNLSRDVTEVLILQLFSQIGPCKSCKMITEHTSNDPYCFVEFYEHRDAAAALAAMNGRKILGKEVKVNWATTPSSQK,soluble
6,MSLKSTDIKIVEAKFSTEEVPFRTPLKFGGRVMDSSVLLNVEVIVETRNGKQGIGIGSMPAGNIWAWPSAVVSPEDSLKAMIEFLKEAVEIANICPEVAHPIDLMYHISAEYHFMAKKLSKRLGLAEEIPELAQLVASSPLDAAIHDGFGRANHINSYNGLSAEYMSHDLTEYLDDQFKGEYLDQYTLRDPKPTLPLYHLVGALDPITEADISERVDDGLPETLGEWIKADGLTHLKIKLSGDNMDWDISRVIAVENEAVKAQGERGQDKWVYSLDFNEKCENVDYVLDFLNKIREQTPAAFDRVQYIEQPTNRDLKANPENKMHEAAKIKPVVIDESLVDYESLLLSRELGYSGVALKACKGQTESLFLGAAAQKFDMFLCVQDLTCCGYSFLHSASLAARIPSIAAIEGNGRQYCPGPNKKWKRSYPGMFNITDGTVKTSEGHHHHHH,not soluble
7,SNAIAVGSERSADGKGMLLANPHFPWNGAMRFYQMHLTIPGRLDVMGASLPGLPVVNIGFSRHLAWTHTVDTSSHFTLYRLALDPKDPRRYLVDGRSLPLEEKSVAIEVRGADGKLSRVEHKVYQSIYGPLVVWPGKLDWNRSEAYALRDANLENTRVLQQWYSINQASDVADLRRRVEALQGIPWVNTLAADEQGNALYMNQSVVPYLKPELIPACAIPQLVAEGLPALQGQDSRCAWSRDPAAAQAGITPAAQLPVLLRRDFVQNSNDSAWLTNPASPLQGFSPLVSQEKPIGPRARYALSRLQGKQPLEAKTLEEMVTANHVFSADQVLPDLLRLCRDNQGEKSLARACAALAQWDRGANLDSGSGFVYFQRFMQRFAELDGAWKEPFDAQRPLDTPQGIALDRPQVATQVRQALADAAAEVEKSGIPDGARWGDLQVSTRGQERIAIPGGDGHFGVYNAIQSVRKGDHLEVVGGTSYIQLVTFPEEGPKARGLLAFSQSSDPRSPHYRDQTELFSRQQWQTLPFSDRQIDADPQLQRLSIRE,soluble
8,MVFFSVVVPTYNRRPILEKCLRALEQQQISAETAIAGYEVVVVDDGSTDGTVDWLKAQASEFPHVRLFEQDHQGPARARNLGVQQAQGDTIIFIDSDLVVTPPFLQAHATGLEKGRQRLGSDRCFTYGAVINTCNFDNPTAEPFKVTDFSNAYFATGNVAIARHWLETAGLFDTAFQLYGWEDLELGVRLKNLGLKLIRCPEAVGYHWHPPFSLEQIPKLIDQESQRGRMGVLFYQKHPTWEVRLMIQMTWLHRLLWGTLSLGGFLNERTLRPLLAWLLKRDRPQLALEIARIFLNWNNVRSVYAAYRESQGLASSLEHHHHHH,soluble
9,MGSDKIHHHHHHTVDNRHDPLESMNRAVFSFNEKLDEVVLEPVARGYQRFIPSPVRMIVGNFFSNLDDVVVAANSLLQLKFMDAMASTTRIVINTTFGMLGAIDLASDISQVSDIDISKRNEDFGQTLGFYGIGSGPYLVLPILGPSTVRDTVGIGVDSTIFHPARAIYTSFDLLTVRLPVTTVEFIDRREQLLDLDKTLEEASLDKYEFVRDAYLQRRESLIKNDGAASEEEPVNFDEEEIIIDD,not soluble
10,GHHHHHHHHHHSSGHISGDAMEDKQERANYEKLQQKFQMLMSKHQAHVRPQFESLEKINKDIVGWIKLSGTSLNYPVLQGKTNHDYLNLDFEREHRRKGSIFMDFRNELKNLNHNTILYGHHVGDNTMFDVLEDYLKQSFYEKHKIIEFDNKYGKYQLQVFSAYKTTTKDNYIRTDFENDQDYQQFLDETKRKSVINSDVNVTVKDRIMTLSTCEDAYSETTKRIVVVAKIIKVS,soluble
11,MRGRAVSRNAIIGIVHRNAKLAAIGFGRAKSSPASEGSSTYTPEEIKLVADCLKAKRNYVQIAQRLALKSGRIISRFGVKSLIRRTPELNEIGFRGKKGRPSDKKKAAPGQLPGRLFIAATADIDRDPSAFDYLTRPAVRALASQPHFAAMRFVDCLPARCRAPLSYDLEERPGPDMLCCGHLAMPSRSYCAYHEIRLTARKAEFIAEAALEHHHHHH,not soluble
12,MGSDKIHHHHHHMKVSGGEVPPFFKEGFFFTSEELTHLINVCSSTSAIISVLKDSKYRRSLVLYLKRPLSKDALLLIQTLLTTLEREDLSFGVKELEYMAYHDPLTGLPNRRYFFELGNRYLDLAKREGKKVFVLFVDLAGFKAINDTYGHLSGDEVLKTVSKRILDRVRRSDVVARYGGDEFTILLYDMKEEYLKSLLERILSTFREPVRVENKHLSVTPNIGVARFPEDGENLEELLKVADMRMYKAKEMKVPYFSLS,not soluble
13,MDEEEEISVVQDMAYDYSGKRLATVSIDREICIWNKKDDWQRTYQWKAHEGPLFGVSWAHPCFGNILATGSYDKRVIIWEEPEASSSYSSSSMDKSTKGWTALAHLVDARDEVRQVQFAPPHLGLLLASGSADGYVRIYTCIDEADLHQWPLLTELDMDSPVVGMSWNPSVDSIPLIVVASHKDCRVWSMDNDTRRWTDWHLFRTSESDTADLSAVAWAPHVGRSFERIALGCEDGSILLFQFPRIQQGNKTNGHEMQPICRLNHGNERIVRLQWNMVGSILASSASDRMVRLWKALPQDGTRWNCFDVVHLNE,not soluble
14,MGSDKIHHHHHHMIKIGAHMPISKGFDRVPQDTVNIGGNSFQIFPHNARSWSAKLPSDEAATKFKREMKKHGIDWENAFCHSGYLINLASPKDDIWQKSVELLKKEVEICRKLGIRYLNIHPGSHLGTGEEEGIDRIVRGLNEVLNNTEGVVILLENVSQKGGNIGYKLEQLKKIRDLVDQRDRVAITYDTCHGFDSGYDITKKEGVEALLNEIESLFGLERLKMIHLNDSKYPLGAAKDRHERIGSGFIGEEGFAVFFSFKEIQEVPWILETPGGNEEHAEDIKKVFEIIEKFGIEVD,not soluble
15,MGSDKIHHHHHHMLYQLHEFNRSLLNPLMHWAEASSRLFTDPASPLAYTPYAQRIAAGYELLYRLGKQYEKPNFNIESVLVNGKTVAIVEEETEKKSFCTLIHFRKKLSAKEFAALKQPVVLLVAPLSGHHSTLLRDTVRSLLQDHDVYITDWTDARMVPLAEGPFHLHDYVYYIQDFIRRLGPDLHVISVCQPTVPVLAAISLMASERDPRLPKTMTMMGGPIDARKSPTQVNDLAVEKPHAWFENQVIYSVPPSYPGFGRKVYPGFLQHAGFIAMNPGRHAQSHWDFYMHLREGDNESAEEHRKFYDEYNAVLDMPAEYYLETIKTVFQEHRLPLGTWEIEGKLVRPQDIKSVALFTIEGEKDDISGAGQTHAAQDLCSALPQSDKQQFTAPQCGHYGIFSGRKWREIIAPKIGEFITRYS,not soluble
16,MVLDIDMFRTEKGGNPEIIRKSQQDRFKDPKLVDEVIELDEKWRKERFVADQLNRQKNAISKAIGEKMKKKEPQGTDDSVADDIVARLAELKIDELSQLTVVQLKKLRVLVDEKSVQTAAAVIANENARHEKLIQIGNLIHSSVVVSKDEANNKIERTFGDLSTKKKYSHVDLVVMVDGFDGERGTVVAGGRGYFLKGPLVFLEQAIIQLALQRLNVKGYVPLYTPFFMRKEVMQEVAQLSQFDDELYKVSSKGSEIAGDTSVDEKYLIATSEQPIAAYHRNEWIKETELPIKYAGVSTCFRQEVGSHGRDTRGIFRVHQFEKIEQFVLCSPNDNESWTLFDEMIGNAESYYQELQIPYQVVNIVSGELNNAAAKKFDLEAWFPGSGAYRELVSCSNCLDYQSRRLKVRYGQTKKLSGEVPFVHMLNATMCATTRVICAILENNQTEEGINVPTAIQQWMPENYRTFIPFVKPAPIDEDAKKATGKK,not soluble
17,MKIDLPPLRQFLNRLLALTIRMQNVIFERFELLLSQQIETAIANGIFEAGVETLRAERFTIESCESVYTHPDTGSVTNYLKVEQVQRNNIRTAVEMLEFAAKYQGQLMVNQKSSNAAVSIPTHSIFDCDGGVVPRVLLVRPQKETRVPVEQLESSTWQQVSAEEFVTAWSREVDELPRFTTDYLHLVTGILLPIWKILPQKNSRVFRLQTSDGQKILGRVVHASDIQTVTEQLGLKNKLLSPAELEHHHHHH,not soluble
18,GSCASCPNNCENGLCTNSCDFEDLLSNCESLKTSAGCKHELLKTKCQATCLCEDKIH,soluble
19,MGFNVKTPLLATDVIIRLWDGENFKGIVLIERKYPPVGLALPGGFVEVGERVEEAAAREMREETGLEVRLHKLMGVYSDPERDPRAHVVSVVWIGDAQGEPKAGSDAKKVKVYRLEEIPLDKLVFDHKKIILDFLKGNY,soluble
20,MGSDKIHHHHHHMTQTPVTLDQKVGEKRDRMRGVFSTQEIRKVGTGTTTRKTIQKSFWYVDEGDDGVIEVQPLNSNYVPSGPKRKIDRDELLDKFAPEPEFYVQTVFPKMRELNKTIARADRHRQKGETFSAEFEYNNALKVDEENVRANFGIGLTYLERGETDKADNIFERLVKLDAAFEEEHKHLFNEFGINLRKSKMYDQAVEYYGRALELSQGDENLHLNVARAYLEKQDFPHCLEHVLRALMINPAHEAGLKFLAWMEAKKLVPEDQRAAVAEAVARARSTGGTPASAANEG,not soluble
21,SMKDHTEGLSDKEQRFVDKLYTGLIQGQRACLAEAITLVESTHSRKKELAQVLLQKVLLYHREQEQSNKGKPLAFRVGLSGPPGAGKSTFIEYFGKMLTERGHKLSVLAVDPSSCTSGGSLLGDKTRMTELSRDMNAYIRPSPTRGTLGGVTRTTNEAILLCEGAGYDIILIETVGVGQSEFAVADMVDMFVLLLPPAGGDELQGIKRGIIEMADLVAVTKSDGDLIVPARRIQAEYVSALKLLRKRSQVWKPKVIRISARSGEGISEMWDKMKDFQDLMLASGELTAKRRKQQKVWMWNLIQESVLEHFRTHPTVREQIPLLEQKVLIGALSPGLAADFLLKAFKSRD,soluble
